The values below come from the Immune Epitope Database (IEDB).

The term Kd denotes the equilibrium constant for the complex coming apart.

One experiment addresses HLA-C*12:03. In words: IEDB peptide-MHC binding, purified MHC/direct/fluorescence; filed as Kd, often an IC50 or EC50 that approximates it; ≥ and ≤ were set here for values at or beyond the usual limits of such assays. The following applies: source organism: Homo sapiens.
The target in experiment [1] is HLA-A*02:01. In words: IEDB peptide-MHC binding, purified MHC/competitive/fluorescence; filed as Kd, often an IC50 or EC50 that approximates it; ≥ and ≤ were set here for values at or beyond the usual limits of such assays. Conditions: source organism: Homo sapiens.
Experiment [2] deals with HLA-A*03:01. The description is as above. The following applies: source organism: Homo sapiens.
Experiment [3] addresses HLA-A*26:01. The experiment is described as above. The following applies: source organism: Homo sapiens.
Another experiment concerns the target HLA-A*32:15. Described as above.
Another experiment deals with HLA-B*15:42. Described as above.
In the next experiment the target is HLA-B*27:03. Described as above. Conditions: source organism: Homo sapiens.
The target of the next experiment is HLA-B*45:06. The experiment is described as above.
A further experiment addresses HLA-B*83:01. The experiment is described as above.
Another experiment concerns the target HLA-C*05:01. The experiment in a line: IEDB peptide-MHC binding, purified MHC/direct/fluorescence; filed as Kd, often an IC50 or EC50 that approximates it; ≥ and ≤ were set here for values at or beyond the usual limits of such assays. Conditions: source organism: dengue virus type 1.
In another experiment the target is HLA-C*06:02. The description is as above. The following applies: source organism: dengue virus type 1.
A further experiment has as its target HLA-C*08:02. The description is as above.
A further experiment concerns the target HLA-C*14:02. The description is as above. The following applies: source organism: dengue virus type 1.
Experiment [4] has as its target HLA-B*46:01. In words: IEDB peptide-MHC binding, purified MHC/competitive/fluorescence; filed as Kd, often an IC50 or EC50 that approximates it; ≥ and ≤ were set here for values at or beyond the usual limits of such assays. The following applies: source organism: dengue virus type 1.
Experiment [5] deals with HLA-A*02:01. In words: IEDB peptide-MHC binding, purified MHC/competitive/radioactivity; filed as Kd, often an IC50 or EC50 that approximates it; ≥ and ≤ were set here for values at or beyond the usual limits of such assays. Conditions: source organism: Dengue virus 2 Jamaica/1409/1983.
A further experiment concerns the target HLA-A*02:03. Described as above. The following applies: source organism: Dengue virus 2 Jamaica/1409/1983.
A further experiment addresses HLA-A*02:06. The description is as above. Conditions: source organism: Dengue virus 2 Jamaica/1409/1983.
A further experiment addresses HLA-A*02:17. Described as above. Conditions: source organism: Dengue virus 2 Jamaica/1409/1983.
Experiment [6] deals with HLA-A*68:02. The experiment is described as above. Conditions: source organism: Dengue virus 2 Jamaica/1409/1983.
Experiment [7] concerns the target HLA-A*26:01. In words: IEDB peptide-MHC binding, purified MHC/direct/fluorescence; filed as Kd, often an IC50 or EC50 that approximates it; ≥ and ≤ were set here for values at or beyond the usual limits of such assays. Conditions: source organism: Giardia lamblia ATCC 50803.
Experiment [8] concerns the target HLA-A*26:02. Described as above.
Another experiment addresses HLA-A*01:01. Described as above. The following applies: source organism: Marburg virus - Musoke, Kenya, 1980.
The target of experiment [9] is HLA-A*02:01. The description is as above.
Experiment [10] addresses HLA-A*11:01. The experiment is described as above. The following applies: source organism: Marburg virus - Musoke, Kenya, 1980.
The target of another experiment is HLA-A*31:01. The experiment is described as above.
Experiment [11] deals with HLA-A*68:02. Described as above. The following applies: source organism: Marburg virus - Musoke, Kenya, 1980.
The target in another experiment is HLA-A*69:01. The description is as above.
The target of another experiment is HLA-B*07:02. Described as above.
Another experiment addresses HLA-B*08:01. Described as above.
For experiment [12], the target named is HLA-B*15:01. The experiment is described as above.
For a further experiment, the target named is HLA-B*15:02. The description is as above. The following applies: source organism: Orthomarburgvirus marburgense.
Experiment [13] deals with HLA-B*15:17. The experiment is described as above. Conditions: source organism: Marburg virus - Musoke, Kenya, 1980.
A further experiment deals with HLA-B*27:05. Described as above.
Experiment [14] addresses HLA-B*46:01. The experiment is described as above.
The target in the next experiment is HLA-B*48:01. Described as above.
The next experiment has as its target HLA-B*57:01. The experiment is described as above.
The target in a further experiment is HLA-B*58:01. Described as above.
In experiment [15] the target is HLA-A*26:02. The experiment in a line: IEDB peptide-MHC binding, purified MHC/competitive/fluorescence; filed as Kd, often an IC50 or EC50 that approximates it; ≥ and ≤ were set here for values at or beyond the usual limits of such assays. The following applies: source organism: Orthomarburgvirus marburgense.
In a further experiment the target is HLA-A*30:02. The experiment in a line: IEDB peptide-MHC binding, purified MHC/competitive/radioactivity; filed as Kd, often an IC50 or EC50 that approximates it; ≥ and ≤ were set here for values at or beyond the usual limits of such assays. Conditions: source organism: Dengue virus 1 Brazil/97-11/1997.
Experiment [16] concerns the target HLA-B*15:01. Described as above. Conditions: source organism: Dengue virus 1 Brazil/97-11/1997.
Experiment [17] deals with HLA-A*03:01. In words: IEDB peptide-MHC binding, purified MHC/direct/fluorescence; filed as Kd, often an IC50 or EC50 that approximates it; ≥ and ≤ were set here for values at or beyond the usual limits of such assays. The following applies: source organism: Influenza A virus (A/Hong Kong/514/97(H5N1)).
The target of another experiment is HLA-B*40:01. Described as above. The following applies: source organism: Influenza A virus (A/Hong Kong/514/97(H5N1)).
Experiment [18] addresses HLA-A*11:01. The experiment in a line: IEDB peptide-MHC binding, purified MHC/competitive/fluorescence; filed as Kd, often an IC50 or EC50 that approximates it; ≥ and ≤ were set here for values at or beyond the usual limits of such assays. Conditions: source organism: Influenza A virus (A/Hong Kong/1074/1999(H9N2)).
Experiment [19] concerns the target HLA-B*15:17. The experiment is described as above. The following applies: source organism: Influenza A virus (A/Hong Kong/1074/1999(H9N2)).
[20] abbreviates: source organism: dengue virus type 1.
The mark [21] stands for this setting: source organism: Marburg virus - Musoke, Kenya, 1980.
The mark [22] stands for this setting: source organism: Influenza A virus (A/Hong Kong/514/97(H5N1)).

For the sequence FLNPVIYTF, the Kd in the experiment with HLA-C*12:03 was 29 nM; with HLA-A*02:01 [1] it was 1.6 nM; in the experiment with HLA-A*03:01 [2] it was no less than 20000 nM; with HLA-A*26:01 [3], no less than 20000 nM; with HLA-A*32:15 (source organism: Homo sapiens), 24 nM; with HLA-B*15:42 (source organism: Homo sapiens), no less than 5000 nM. Moreover, the dissociation constant (Kd) with HLA-B*27:03 was no less than 20000 nM; with HLA-B*45:06 (source organism: Homo sapiens), no less than 5000 nM; in the experiment with HLA-B*83:01 (source organism: Homo sapiens) it was 240 nM.

With FTMRLLSPV, the dissociation constant (Kd) in the experiment with HLA-C*05:01 was 2290 nM; in the experiment with HLA-C*06:02 it was no less than 20000 nM; with HLA-C*08:02 (setting [20]), 316 nM; in the experiment with HLA-C*14:02, 98 nM; with HLA-A*32:15 (setting [20]), 116 nM; with HLA-B*15:42 (setting [20]) it was no less than 5000 nM. For the same sequence, the equilibrium dissociation constant (Kd) with HLA-B*45:06 (setting [20]) is no less than 5000 nM; with HLA-B*46:01 [4], 15 nM; in the experiment with HLA-B*83:01 (setting [20]), no less than 5000 nM; with HLA-A*02:01 [5], 1.56 nM; in the experiment with HLA-A*02:03 it was 3.44 nM; with HLA-A*02:06 it was 4.32 nM. Further, the Kd was determined as 29.8 nM with HLA-A*02:17 and 0.78 nM with HLA-A*68:02 [6].

Regarding ITSGHSWAY, the Kd in the experiment with HLA-A*26:01 [7] worked out at 28 nM; with HLA-A*26:02 [8] (source organism: Giardia lamblia ATCC 50803) it was 34 nM.

Consider NQQVTNSKY, for which the equilibrium dissociation constant (Kd) with HLA-A*01:01, in the experiment with HLA-A*02:01 [9] (setting [21]), with HLA-A*11:01 [10], with HLA-A*31:01 (setting [21]), with HLA-A*68:02 [11] and with HLA-A*69:01 (setting [21]) was no less than 20000 nM throughout. The equilibrium dissociation constant (Kd) with HLA-B*07:02 (setting [21]) was no less than 20000 nM; with HLA-B*08:01 (source organism: Orthomarburgvirus marburgense), no less than 20000 nM; with HLA-B*15:01 [12] (setting [21]) it was 80.3 nM; with HLA-B*15:02, 87 nM; with HLA-B*15:17 [13], no less than 20000 nM; with HLA-B*27:05 (setting [21]), no less than 20000 nM. The Kd in the experiment with HLA-B*46:01 [14] (setting [21]), with HLA-B*48:01 (setting [21]), with HLA-B*57:01 (setting [21]), with HLA-B*58:01 (setting [21]) and with HLA-A*26:02 [15] was no less than 20000 nM in each case.

SVKKDLISY: the Kd was 2 nM with HLA-A*26:02 [8] (source organism: dengue virus type 3), 26.1 nM with HLA-A*30:02 and 5.96 nM with HLA-B*15:01 [16].

With VSDGGPNLY, the Kd with HLA-A*02:01 [9] (setting [22]), with HLA-A*03:01 [17], with HLA-A*31:01 (setting [22]), with HLA-A*69:01 (setting [22]), with HLA-B*07:02 (setting [22]) and with HLA-B*08:01 (source organism: Influenza A virus H3N2) was no less than 20000 nM each time. The Kd with HLA-B*15:01 [12] (setting [22]) was 2990 nM; in the experiment with HLA-B*27:05 (setting [22]) it was no less than 20000 nM; with HLA-B*40:01 it was no less than 20000 nM; with HLA-B*46:01 [14] (setting [22]) it was no less than 20000 nM; with HLA-B*48:01 (setting [22]) it was no less than 20000 nM; with HLA-B*57:01 (setting [22]) it was 16700 nM. Moreover, the dissociation constant Kd is 553 nM in the experiment with HLA-B*58:01 (setting [22]), 86 nM in the experiment with HLA-C*08:02 (source organism: Influenza A virus (A/Hong Kong/1074/1999(H9N2))), no less than 20000 nM with HLA-A*11:01 [18] and 192 nM with HLA-B*15:17 [19].
